Assay results taken from US20120177571A1, “PANCREATIC ENDOCRINE CELL INDICATING AGENT AND UTILIZATION OF SAME” (RIKEN, priority 2009, published 2012).

Test system: pancreatic beta cells
Conditions: in vivo, 70 mg/kg
Protocol: 70 mg of Streptozotocin (STZ), which is selectively toxic to the pancreatic beta cells, was intraperitoneally administered to a rat per kilogram of the weight of the rat. Thus, a diabetic rat whose pancreatic beta cells were damaged was prepared. Next, ^68Ga-DOTA-octreotide (PET probe) was intravenously administered to the model rat in accordance with the method in Example 1. Next, in accordance with the method in Example 1, the abdomen of the model rat was scanned with the use of a PET and image reconstruction was performed. […] Further, as in Example 1, organs etc. were removed from the model rat after the scan, and radioactivity in each of the organs etc. was quantified.

Question: How did the “accumulation of the PET probe in kidney and liver (PET image), diabetic model rat” value turn out when `C[C@@H](O)[C@@H]1NC(=O)[C@H](CCCCN)NC(=O)[C@@H](Cc2c[nH]c3ccccc23)NC(=O)[C@H](Cc2ccccc2)NC(=O)[C@@H](NC(=O)[C@@H](Cc2ccccc2)NC(=O)CN2CCN(CC(=O)O)CCN(CC(=O)O)CCN(CC(=O)O)CC2)CSSC[C@@H](C(=O)N[C@H](CO)[C@@H](C)O)NC1=O` [^68Ga-DOTA-octreotide, metal not drawn] was run?
Answer: observed
